{
  "source": "the Human Domainome abundance scans (Beltran et al. 2025)",
  "parents": {"B1": {"name": "Zinc finger MYM-type protein 6, residues 427 to 504; numbered along this chain, O95789 (parent)", "chain": "KLKCQHCNHLFATKPELLFYKGKMFLFCGKNCSDEYKKKNKVVAMCDYCKLQKIIKETVRFSGVDKPFCSEVCKFLSA"}},
  "note": "± gives the uncertainty stated by the source.",
  "data": [
    {"variants_of": "B1", "assay": "abundance fitness (aPCA) (normalised: wild type 0, dead -1); higher = more abundant; growth selection in yeast, the domain comes from the species named", "settings": "Homo sapiens", "values": [
      {"variant": "KLKCQHCNHLFATKPELLFYKDKMFLFCGKNCSDEYKKKNKVVAMCDYCKLQKIIKETVRFSGVDKPFCSEVCKFLSA", "abundance fitness": "-0.215 ± 0.5"},
      {"variant": "KLKCQHCNHLFATKPELLFYKGKMFLFCGKNCSDEYKKKNKVVAMCDYCKLQKIIKETVRFSGVDKPFGSEVCKFLSA", "abundance fitness": "-0.731 ± 0.097"},
      {"variant": "KLKCQHCNHLFATKPELLFAKGKMFLFCGKNCSDEYKKKNKVVAMCDYCKLQKIIKETVRFSGVDKPFCSEVCKFLSA", "abundance fitness": "0.031 ± 0.03"},
      {"variant": "KLKCQHCNHLFATKPELLFYKGKMFLFCGKNCSDEYKKKVKVVAMCDYCKLQKIIKETVRFSGVDKPFCSEVCKFLSA", "abundance fitness": "-0.03 ± 0.051"},
      {"variant": "KLKCQHCNHLFATKPELLFYKGKMFLFCGKNCSDEYKKKNKVVAMCDYCHLQKIIKETVRFSGVDKPFCSEVCKFLSA", "abundance fitness": "-0.427 ± 0.43"},
      {"variant": "KLKCQHCNVLFATKPELLFYKGKMFLFCGKNCSDEYKKKNKVVAMCDYCKLQKIIKETVRFSGVDKPFCSEVCKFLSA", "abundance fitness": "0.032 ± 0.032"},
      {"variant": "KLKCQHCNHLFATKPELLFYKGKMFLFCGKNCSDEYKKKNKVVAMCDPCKLQKIIKETVRFSGVDKPFCSEVCKFLSA", "abundance fitness": "-0.801 ± 0.23"},
      {"variant": "KLKCQHCNHLFATKPELLFYKGKMFLFCGKNCSDEYKKKNKVVAMCDQCKLQKIIKETVRFSGVDKPFCSEVCKFLSA", "abundance fitness": "0.059 ± 0.14"},
      {"variant": "KLKCQHCNHLFATKPELLWYKGKMFLFCGKNCSDEYKKKNKVVAMCDYCKLQKIIKETVRFSGVDKPFCSEVCKFLSA", "abundance fitness": "-0.005 ± 0.031"},
      {"variant": "KLKCQHCNHLFATKPELWFYKGKMFLFCGKNCSDEYKKKNKVVAMCDYCKLQKIIKETVRFSGVDKPFCSEVCKFLSA", "abundance fitness": "-0.019 ± 0.031"},
      {"variant": "KLKCQHCNHLFATKPELLFYKGKMFLQCGKNCSDEYKKKNKVVAMCDYCKLQKIIKETVRFSGVDKPFCSEVCKFLSA", "abundance fitness": "-0.527 ± 0.054"},
      {"variant": "KLKCQHCNHLFATKPELLFYKGKMFLECGKNCSDEYKKKNKVVAMCDYCKLQKIIKETVRFSGVDKPFCSEVCKFLSA", "abundance fitness": "-0.508 ± 0.051"},
      {"variant": "KLKCQHCNHLFATKPELLFYKGKMFLFCGKNCSDEYKKKNKVVAMCDYCKLQKIIKETVRFSGVDKPQCSEVCKFLSA", "abundance fitness": "-0.341 ± 0.17"},
      {"variant": "KLKCQHCNHLFATKPELLFYKGKMFLFCGKNCSDEYKKKNKVVAMCDYCKLQKIIKETVRFSGVDKPCCSEVCKFLSA", "abundance fitness": "0.204 ± 0.15"},
      {"variant": "KLKSQHCNHLFATKPELLFYKGKMFLFCGKNCSDEYKKKNKVVAMCDYCKLQKIIKETVRFSGVDKPFCSEVCKFLSA", "abundance fitness": "-0.702 ± 0.091"},
      {"variant": "KLKKQHCNHLFATKPELLFYKGKMFLFCGKNCSDEYKKKNKVVAMCDYCKLQKIIKETVRFSGVDKPFCSEVCKFLSA", "abundance fitness": "-0.687 ± 0.098"},
      {"variant": "KLKHQHCNHLFATKPELLFYKGKMFLFCGKNCSDEYKKKNKVVAMCDYCKLQKIIKETVRFSGVDKPFCSEVCKFLSA", "abundance fitness": "-0.649 ± 0.5"},
      {"variant": "KLKCQHCNHLFATKPELLFYKGKMFLFCGKNCSDEYKKKNKVVAMCDYCKLQKIIKETVRFSLVDKPFCSEVCKFLSA", "abundance fitness": "-0.315 ± 0.097"},
      {"variant": "KLKCQHCNHLFATKPELLFYKGKMFLFCGKNCSDEYKKKNKVVAMCDYCKLQKIIKETVRFSGVDKPFCHEVCKFLSA", "abundance fitness": "-0.248 ± 0.18"},
      {"variant": "KLKCQHCNHLFATKPELLFYKGKMFLFCGKNCSDEYKKKNKVVAMCDYCKLQKIIKEDVRFSGVDKPFCSEVCKFLSA", "abundance fitness": "0.779 ± 0.11"},
      {"variant": "KLKCQHCNHLFATKPELLFYKGKMFLFCGKNCSDEYKKKNKVVAMCDYCKLQKIIKETVRFSGVDKPFCSEHCKFLSA", "abundance fitness": "0.016 ± 0.33"},
      {"variant": "KLKCQHCNHLFATKPELLFYKGKMFLFCGKNCSDEYKKKNKVVAMCDYCKLQKIIKETVRFSGVDKPFCSEECKFLSA", "abundance fitness": "0.535 ± 0.073"},
      {"variant": "KLKCQHCNHLFATKPELLFYKGKMFLFCGKNCSDEYCKKNKVVAMCDYCKLQKIIKETVRFSGVDKPFCSEVCKFLSA", "abundance fitness": "-0.074 ± 0.084"},
      {"variant": "KLKCQHCNHLFATKPLLLFYKGKMFLFCGKNCSDEYKKKNKVVAMCDYCKLQKIIKETVRFSGVDKPFCSEVCKFLSA", "abundance fitness": "-0.139 ± 0.036"},
      {"variant": "KLKCQHCRHLFATKPELLFYKGKMFLFCGKNCSDEYKKKNKVVAMCDYCKLQKIIKETVRFSGVDKPFCSEVCKFLSA", "abundance fitness": "-0.02 ± 0.031"},
      {"variant": "KLKCQHCNHLFATKPELLFYKGKMFLFCGKNCSDEYKKKNKVVAMCDYCKLQKIIKETVRFSGVDKPFCSEVIKFLSA", "abundance fitness": "-0.753 ± 0.29"},
      {"variant": "KLKCQHCNHLFATKPELLFYKGKMFLFCGKNCSDEYKKKNKVVAMCTYCKLQKIIKETVRFSGVDKPFCSEVCKFLSA", "abundance fitness": "-0.041 ± 0.15"},
      {"variant": "KLKCQHCNHLFATKPELLFYKGKMFLFCGKNCSDEYKKKNKVVAMCDYCKLQWIIKETVRFSGVDKPFCSEVCKFLSA", "abundance fitness": "-0.313 ± 0.09"},
      {"variant": "KLKCQHCNHLFATKPELLFYKGKMFLFCGKNCSDEYKKKNKVVAMCDYCKLQPIIKETVRFSGVDKPFCSEVCKFLSA", "abundance fitness": "-0.154 ± 0.15"},
      {"variant": "KLKCQHCNHLFATKPELLFYKGKMFLFCGKNLSDEYKKKNKVVAMCDYCKLQKIIKETVRFSGVDKPFCSEVCKFLSA", "abundance fitness": "-1.05 ± 0.22"},
      {"variant": "KLKCQHCNHLFATKPELLFYKGKMFLFCGKNCSDEYKKKNKVVAMCDYCKLQKGIKETVRFSGVDKPFCSEVCKFLSA", "abundance fitness": "0.238 ± 0.06"},
      {"variant": "KLKCQHCNHLFATKPELLFYKGKMFLFCGKNCSDEYKKKNKVVAMCDYCKLQKIIKETVRFSGVDWPFCSEVCKFLSA", "abundance fitness": "-0.845 ± 0.28"},
      {"variant": "KLKCQHCNHLFATKPELLFYKGKMFLFCGKACSDEYKKKNKVVAMCDYCKLQKIIKETVRFSGVDKPFCSEVCKFLSA", "abundance fitness": "-0.078 ± 0.03"},
      {"variant": "KLKCQHCNHLFATKPELLFYKGKMFLFCGKLCSDEYKKKNKVVAMCDYCKLQKIIKETVRFSGVDKPFCSEVCKFLSA", "abundance fitness": "-0.067 ± 0.035"},
      {"variant": "KLKCQHCNHLFATKPELLFYKGKMFLFCGKNCSDEYKKKNKVVAMCDYCKLQKIIKETVRESGVDKPFCSEVCKFLSA", "abundance fitness": "0.298 ± 0.083"},
      {"variant": "KLKCQHCNHLFATKPELLFYKGKMFLFCGKNCSDEYKKKNKVVAMCDYCKLQKIIKETVRTSGVDKPFCSEVCKFLSA", "abundance fitness": "0.348 ± 0.086"}
    ]}
  ]
}
